According to US20250277045A1 (KEYMED BIOSCIENCES, published 2025):

Columns and labels:
[1] = molecular target: T1, human BCMA on cells (CHO-hBCMA clone 2C2; NCI-H929; RPMI-8226) (human, UniProt Q02223 1-184); assay: flow cytometry, CHO-human BCMA cells
T1 construct: whole, on cells; also called Human BCMA-CHO; CHO-hBCMA-2C2
T1 sequence (looked up): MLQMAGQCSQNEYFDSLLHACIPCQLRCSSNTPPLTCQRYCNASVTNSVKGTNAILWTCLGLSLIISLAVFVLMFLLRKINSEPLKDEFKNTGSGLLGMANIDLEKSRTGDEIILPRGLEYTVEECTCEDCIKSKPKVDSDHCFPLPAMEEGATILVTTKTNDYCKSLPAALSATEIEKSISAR
Experimental: (§1) 50 μL/well Alexa Fluro647 labeled goat anti-human IgG Fc (1:300 dilution) was added to the secondary antibody, incubated on ice for 20 min, 50 μL/well PI solution (1:300) was added after washing once, incubated for 5 min, and flow cytometer was used to perform detection.

[2] = molecular target: T2, human BCMA recombinant antigen (human, UniProt Q02223 1-53); assay: competition ELISA, coated human BCMA, antibody varied, then biotinylated human APRIL at 240 ng/mL, SA-HRP
T2 construct: range 1-53; also called human BCMA recombinant protein
T2 sequence (looked up): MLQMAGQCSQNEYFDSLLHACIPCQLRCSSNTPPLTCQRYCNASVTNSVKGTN
Experimental: 1 μg/mL human BCMA recombinant antigen was prepared with pH 9.6 carbonic acid buffer, added to a maxisorp96-well plate, and coated overnight at 4° C. After blocking with 5% skim milk/PBS for 1 h at room temperature, 50 μL antibody per well (4-fold dilution from 30 μg/mL for a total of 10 gradients) was added and incubated for 30 min at room temperature. […] After 3 washes with 0.05% PBST (PBS+0.05% Tween-20) and PBS respectively, 100 μL of SA-HRP (diluted 1:8000) was added to each well and incubated at room temperature for 45 min. Washing 3 times with 0.05% PBST and PBS respectively, 100 μL TMB color-developing solution was added into each well, after 10 min, 50 μL concentrated sulfuric acid was added into each well to stop the reaction, read OD450 nm by a microplate reader, and perform three-parameter fitting curve using Graphpad software.

[3] = molecular target: T3, human CD3 on T cells (Jurkat cells; human peripheral blood CD4+ and CD8+ T cells) (human, UniProt P07766 23-207); assay: flow cytometry, peripheral blood CD4+ T cells (PBMC)
T3 construct: whole, on cells; also called CD3ε
Experimental: (§2) Fresh human or cynomolgus monkey peripheral blood was taken and PBMC was isolated by Ficoll-Paque Plu (GE, 17-1440-03). […] 50 μL/well Alexa Fluro647 labeled goat anti-human IgG Fc (1:300 dilution) was added to the secondary antibody, ice bath for 20 min, 50 μL/well PI was added after washing once, incubated for 5 min, and flow cytometer (BD C6) was used to perform detection.

[4] = molecular target: T1, human BCMA on cells (CHO-hBCMA clone …); assay: flow cytometry, RPMI-8226 cells
Experimental: (§3) The primary antibody was washed off, 50 μL/well Alexa Fluro647 labeled goat anti-human IgG Fc (1:300 dilution) was added, incubated on ice for 20 min, 50 μL/well PI was added after washing once, incubated for 5 min, and flow cytometer was used to perform detection.

[5] = molecular target: T4, cynomolgus monkey CD3εγ-Fc heterodimer (cynomolgus monkey); assay: SPR (Biacore T200), antigen amine-coupled to CM5, antibody as analyte, 1:1 model
T4 chain 1: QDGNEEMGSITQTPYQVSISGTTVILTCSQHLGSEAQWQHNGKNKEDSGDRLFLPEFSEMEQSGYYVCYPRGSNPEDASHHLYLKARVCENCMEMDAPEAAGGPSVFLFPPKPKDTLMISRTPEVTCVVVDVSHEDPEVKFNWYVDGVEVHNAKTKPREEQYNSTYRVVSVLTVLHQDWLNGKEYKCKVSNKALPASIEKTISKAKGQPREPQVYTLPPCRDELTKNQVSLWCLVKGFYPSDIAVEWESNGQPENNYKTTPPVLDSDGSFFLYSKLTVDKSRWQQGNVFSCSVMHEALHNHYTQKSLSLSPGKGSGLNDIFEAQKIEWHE
T4 chain 2: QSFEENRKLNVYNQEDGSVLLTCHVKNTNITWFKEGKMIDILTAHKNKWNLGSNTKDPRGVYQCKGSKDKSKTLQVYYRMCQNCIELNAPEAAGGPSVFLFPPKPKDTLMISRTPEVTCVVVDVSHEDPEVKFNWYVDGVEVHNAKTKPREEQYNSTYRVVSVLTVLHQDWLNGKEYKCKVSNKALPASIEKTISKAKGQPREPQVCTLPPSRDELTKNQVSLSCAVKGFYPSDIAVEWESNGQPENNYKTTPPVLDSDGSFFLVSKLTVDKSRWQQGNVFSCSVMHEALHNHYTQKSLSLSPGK
Experimental: (§4) 10 μg/mL human or cynomolgus monkey BCMA or CD3εγ recombinant antigen was bound to a CM5 chip (GE healthcare) by amino coupling, controlling the amount of antigen bound to approximately 200 RU. After the baseline plateau, gradient-diluted antibodies (from 10 μg/mL, 2-fold dilutions for 7 gradients) flowed through the chip at a flow rate of 30 μL/min for a binding time of 350 seconds and a dissociation time of 600 seconds. Kinetic constants were fitted using Biacore T200 evaluation software with a 1:1 binding model.

[6] = molecular target: T2, human BCMA recombinant antigen; assay: as above
Experimental: as §4

[7] = molecular target: T5, cynomolgus monkey BCMA recombinant antigen (cynomolgus monkey, UniProt A0A2K5UD97 1-51); assay: as above
T5 construct: range 1-52
Experimental: as §4

[8] = molecular target: T3, human CD3 on T cells (Jurkat cells; …); assay: flow cytometry, Jurkat cells
Experimental: Jurkat cells in the logarithmic growth phase were added with 200 μg/mL murine IgG (Jackson ImmunoResearch, 115-005-03) and incubated on ice for 30 min. […] 50 μL/well Alexa Fluro647 labeled goat anti-human IgG Fc (1:300 dilution) was added to the secondary antibody, incubated on ice for 20 min, 50 μL/well PI was added after washing once, incubated for 5 min, and flow cytometer (BD C6) was used to perform detection.

[9] = molecular target: T6, cynomolgus monkey BCMA on CHO cells (CHO-cynoBCMA clone 1A2) (cynomolgus monkey, UniProt A0A2K5UD97 1-183); assay: flow cytometry, CHO-cynomolgus monkey BCMA cells
T6 construct: whole, on cells; also called Cynomolgus monkey BCMA-CHO; CHO-cynoBCMA-1A2
Experimental: as §1

[10] = molecular target: T1, human BCMA on cells (CHO-hBCMA clone …); assay: flow cytometry, NCI-H929 cells
Experimental: as §3

[11] = molecular target: T3, human CD3 on T cells (Jurkat cells; …); assay: flow cytometry, peripheral blood CD8+ T cells (PBMC)
Experimental: as §2

T3 sequence (P07766 23-207): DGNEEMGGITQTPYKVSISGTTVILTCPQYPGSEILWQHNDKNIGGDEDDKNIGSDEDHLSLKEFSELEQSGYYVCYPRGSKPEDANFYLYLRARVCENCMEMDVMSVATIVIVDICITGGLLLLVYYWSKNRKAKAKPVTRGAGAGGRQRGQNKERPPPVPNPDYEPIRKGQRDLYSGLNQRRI
T5 sequence (A0A2K5UD97 entry or part of it): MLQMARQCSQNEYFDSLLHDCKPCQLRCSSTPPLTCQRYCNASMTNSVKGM
T6 sequence (A0A2K5UD97 entry or part of it): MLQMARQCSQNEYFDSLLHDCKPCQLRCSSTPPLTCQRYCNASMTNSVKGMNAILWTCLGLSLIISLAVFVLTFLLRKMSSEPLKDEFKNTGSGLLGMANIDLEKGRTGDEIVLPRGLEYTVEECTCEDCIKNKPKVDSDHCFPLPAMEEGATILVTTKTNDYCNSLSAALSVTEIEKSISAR

B1: BCMA×CD3 κλ005 (bispecific antibody, human IgG4 S228P, kappa, lambda)
light 1: DIVLTQSPASLAVSPGQRATITCRASKSVSTSGYSYMHWYQKKPGQPPKLLIYLASNLESGVPARFSGSGSGTDFTLTINPVEAEDTANYYCQHSRELPWTFGQGTKVEIKRTVAAPSVFIFPPSDEQLKSGTASVVCLLNNFYPREAKVQWKVDNALQSGNSQESVTEQDSKDSTYSLSSTLTLSKADYEKHKVYACEVTHQGLSSPVTKSFNRGEC
heavy 1: QVQLVQSGSELKKPGASVKVSCKASGYIFTNFGMNWVREAPGQGLEWMGWINTYTGEQIYADGFTGRFVFSLDTSVSTAYLQISSLKAEDTAVYFCARGEIYYGYDVGFVYWGQGTLVTVSSASTKGPSVFPLAPCSRSTSESTAALGCLVKDYFPEPVTVSWNSGALTSGVHTFPAVLQSSGLYSLSSVVTVPSSSLGTKTYTCNVDHKPSNTKVDKRVESKYGPPCPPCPAPEFEGGPSVFLFPPKPKDTLMISRTPEVTCVVVDVSQEDPEVQFNWYVDGVEVHNAKTKPREEQFNSTYRVVSVLTVLHQDWLNGKEYKCKVSNKGLASSIEKTISKAKGQPREPQVCTLPPSQEEMTKNQVSLSCAVKGFYPSDIAVEWESNGQPENNYKTTPPVLDSDGSFFLVSKLTVDKSRWQEGNVFSCSVMHEALHNHYTQKSLSLSLGK
light 2: QAVVTQEPSLTVSPGGTVTLTCRSSTGAVTTSNYANWVQEKPGQAPRGLIGGTNKRAPWTPARFSGSLLGGKAALTITGAQAEDEAEYYCVLWYSNLWVFGGGTKLTVLGQPKAAPSVTLFPPSSEELQANKATLVCLISDFYPGAVTVAWKADSSPVKAGVETTTPSKQSNNKYAASSYLSLTPEQWKSHRSYSCQVTHEGSTVEKTVAPTECS
heavy 2: EVQLVESGGGLVQPGGSLRLSCAASGFTFNTYAMNWVRKAPGKGLEWVGRIRSKYNNYATYYADSVKDRFTISRDDSKNSLYLQMNSLKTEDTAVYYCVRHGNFGNSYVSWFAYWGQGTLVTVSSASTKGPSVFPLAPCSRSTSESTAALGCLVKDYFPEPVTVSWNSGALTSGVHTFPAVLQSSGLYSLSSVVTVPSSSLGTKTYTCNVDHKPSNTKVDKRVESKYGPPCPPCPAPEFEGGPSVFLFPPKPKDTLMISRTPEVTCVVVDVSQEDPEVQFNWYVDGVEVHNAKTKPREEQFNSTYRVVSVLTVLHQDWLNGKEYKCKVSNKGLASSIEKTISKAKGQPREPQVYTLPPCQEEMTKNQVSLWCLVKGFYPSDIAVEWESNGQPENNYKTTPPVLDSDGSFFLYSKLTVDKSRWQEGNVFSCSVMHEALHNHYTQKSLSLSLGK
EC50 [1]: 24 nM | IC50 (read off the curve) [2]: ~3 nM | EC50 [3]: 66 nM | EC50 [4]: 38 nM | Kd [5]: 20 nM | Kd [6]: 1.1 nM | Kd [7]: 0.09 nM | EC50 [8]: 51 nM | EC50 [9]: 3 nM | EC50 [10]: 33 nM | EC50 [11]: 60 nM

B2: BCMA×CD3 κλ006 (bispecific antibody, human IgG4 S228P, kappa, lambda)
light 1: DIVLTQSPASLAVSPGQRATITCRASKSVTTSGYSYIHWYQKKPGQPPKLLIYLASDLEAGVPARFSGSGSGTDFTLTINPVEAEDTANYYCQHSRELPWTFGQGTKVEIKRTVAAPSVFIFPPSDEQLKSGTASVVCLLNNFYPREAKVQWKVDNALQSGNSQESVTEQDSKDSTYSLSSTLTLSKADYEKHKVYACEVTHQGLSSPVTKSFNRGEC
heavy 1: QVQLVQSGSELKKPGASVKVSCKASGYIFTNFGMNWVREAPGQGLEWMGWINTYTGEQIYADGFTGRFVFSLDTSVSTAYLQISSLKAEDTAVYFCARGEIYYGYDVGFVYWGQGTLVTVSSASTKGPSVFPLAPCSRSTSESTAALGCLVKDYFPEPVTVSWNSGALTSGVHTFPAVLQSSGLYSLSSVVTVPSSSLGTKTYTCNVDHKPSNTKVDKRVESKYGPPCPPCPAPEFEGGPSVFLFPPKPKDTLMISRTPEVTCVVVDVSQEDPEVQFNWYVDGVEVHNAKTKPREEQFNSTYRVVSVLTVLHQDWLNGKEYKCKVSNKGLASSIEKTISKAKGQPREPQVCTLPPSQEEMTKNQVSLSCAVKGFYPSDIAVEWESNGQPENNYKTTPPVLDSDGSFFLVSKLTVDKSRWQEGNVFSCSVMHEALHNHYTQKSLSLSLGK
light 2: QAVVTQEPSLTVSPGGTVTLTCRSSTGAVTTSNYANWVQEKPGQAPRGLIGGTNKRAPWTPARFSGSLLGGKAALTITGAQAEDEAEYYCVLWYSNLWVFGGGTKLTVLGQPKAAPSVTLFPPSSEELQANKATLVCLISDFYPGAVTVAWKADSSPVKAGVETTTPSKQSNNKYAASSYLSLTPEQWKSHRSYSCQVTHEGSTVEKTVAPTECS
heavy 2: EVQLVESGGGLVQPGGSLRLSCAASGFTFNTYAMNWVRKAPGKGLEWVGRIRSKYNNYATYYADSVKDRFTISRDDSKNSLYLQMNSLKTEDTAVYYCVRHGNFGNSYVSWFAYWGQGTLVTVSSASTKGPSVFPLAPCSRSTSESTAALGCLVKDYFPEPVTVSWNSGALTSGVHTFPAVLQSSGLYSLSSVVTVPSSSLGTKTYTCNVDHKPSNTKVDKRVESKYGPPCPPCPAPEFEGGPSVFLFPPKPKDTLMISRTPEVTCVVVDVSQEDPEVQFNWYVDGVEVHNAKTKPREEQFNSTYRVVSVLTVLHQDWLNGKEYKCKVSNKGLASSIEKTISKAKGQPREPQVYTLPPCQEEMTKNQVSLWCLVKGFYPSDIAVEWESNGQPENNYKTTPPVLDSDGSFFLYSKLTVDKSRWQEGNVFSCSVMHEALHNHYTQKSLSLSLGK
EC50 [1]: 16 nM | IC50 (read off the curve) [2]: ~2 nM | EC50 [3]: 91 nM | EC50 [4]: 19 nM | Kd [5]: 33 nM | Kd [6]: 1.2 nM | Kd [7]: 0.1 nM | EC50 [8]: 56 nM | EC50 [9]: 3 nM | EC50 [10]: 32 nM | EC50 [11]: 93 nM
